Data on 9 molecules can be found in US20240043504A1 (published 2024).

Sequences and labels used below:
B1: mAb10932 (antibody, V domains shown)
VH: EVQLVESGGGLVQSGGSLRLSCAASGLTVSSNYMSWVRQAPGKGLEWVSVIYSGGSTFYSDSVKGRFTISRHNSKNTLYLQMNSLRAEDTAVYYCARARGDAFDIWGQGTMVTVSS
VL: not shown
B2: mAb10915 (antibody, V domains shown)
VH: EVQLVESGGGLVQPGGSLRLSCAASGFTVSSNYMNWVRQAPGKGLEWVSVIYSGGSTFYADSVKGRFTISRHNSKNTLYLQMNSLRPEDTAVYYCARDLGGYFDYWGQGTLVTVSS
VL: not shown
B3: mAb10913 (antibody, V domains shown)
VH: EVQLVESGGGLVQPGGSLRLSCAASGFTFRNYEMNWVRQAPGKGLEWVSYITSSGSTMYYADSVKGRFTISRDNAKNSLYLQMNSLRAEDTAVYYCARDGFYYYYAMDVWGQGTTVTVSS
VL: QSVLTQPPSVSAAPGQKVTISCSGSSSNIGNNYVSWYQQLPGTAPKLLIYDNNKRPSGIPDRFSGSKSGTSATLGITGLQTGDEADYYCGTWDSSLSVGRVFGTGTKVTVLG
B4: mAb10930 (antibody, V domains shown)
VH: EVQLVESGGGLVQPGRSLRLSCAASGFTFDDYAMYWVRQAPGKGLEWVSGISWNSGSIGYADSVKGRFTISRDNAKNSLYLQMNSLRAADTALYYCAKDKDWNSRGYYYYGMDVWGQGTTVTVSS
VL: not shown
B5: mAb10934 (antibody, V domains shown)
VH: not shown
VL: DIQMTQSPSSLSASVGDRVTITCQASQDIWNYINWYQQKPGKAPKLLIYDASNLKTGVPSRFSGSGSGTDFTFTISSLQPEDIATYYCQQHDDLPPTFGQGTKVEIKR
B6: mAb10920 (antibody, V domains shown)
VH: QVQLVESGGGVVQPGRSLRLSCAASGFTFSYYGMHWVRQAPGKGLEWVAVIWYDGSNKFYADSVKGRFTISRDNSKNTLYLQMNSLRAEDTAVYYCAAARPGYYYGMDVWGQGTTVTVSS
VL: DIQMTQSPSSLSASVGDRVTITCRASQGISNYLAWFQQKPGKAPNSLIYAASSLQRGVPSKFSGSGSGTDFTLTISSLQPEDFATYYCQQYNSYPRTFGQGTKVEIKR
B7: mAb10921 (antibody, V domains shown)
VH: EVQLVESGGGLVQPGGSLRLSCAASGITVSSNYMSWVRQAPGKGLEWVSVIYSGGSTFYADSVKGRFTISRHNSKNTLYLQMNSLRAEDTAVYYCARERNFDAFDIWGQGTMVTVSS
VL: DIQMTQSPSSVSASVGDRVTITCRASQGISSWLAWYQQKPGKAPKLLIYAASSLQSGVPSRFSGSGSGTDFTLTISSLQPEDFATYYCQQANSFPLFTFGPGTKVDIKR
B8: mAb10914 (antibody, V domains shown)
VH: EVQLVESGGGLVQPGGSLRLSCAASGLIVSRNYMIWVRQAPGKGLEWVSVIYSGGSTFYADSVKGRFTISRHNSKNTLYLQMNSLRAEDTAVYYCARDLGTGGMDVWGQGTTVTVSS
VL: DIQLTQSPSFLSASVGDRVTITCWASQGISSYLAWYQQKPGKAPKLLIYAASTLQSGVPSRFSGSGSGTEFTLTISSLQPEDFATYYCQQLNSYPLTFGGGTKVEIKR
B9: mAb10923 (antibody, V domains shown)
VH: QVQLVQSGAEVKKPGASVKVSCKASGYTFINYYIHWVRQAPGQGLEWMGWINPNSGGTNYAQKFQGRVTMTRDTSISTAYMELSRLRSDDTAVYYCAIITIFGVVTWFDPWGQGTLVTVSS
VL: not shown

The test has as its target SARS-COV-2 RBD extracellular domain expressed with a C-terminal mouse IgG2a (SARS-CoV-2). Description: SPR Biacore, mAb captured via anti-hFc, 25 C.
As a reminder, the Kd is the constant that tells how readily two partners part at equilibrium. A lower Kd goes with tighter binding. For orientation: koff means the first-order rate constant of dissociation. Read a high koff as a short-lived complex. The kon is a measure of how fast the partners come together. A high value points to fast association. The t½ is the time needed for the level to fall by half in the phase considered. A higher t½ goes with slow decline. As to B1, binding was put at a Kd of 0.0967 nM, the dissociation rate constant (koff) is 2.85e-05 s⁻¹, the kon came to 295000 M⁻¹ s⁻¹ and the “t½” value came out at 6.75 h.

B2: binding was put at a Kd of 0.0323 nM and the “t½” value came to 21.1 h.

B3: binding was characterised by a dissociation constant (Kd) of 0.0553 nM, the koff is 0.000277 s⁻¹, the kon is 5e+06 M⁻¹ s⁻¹ and the “t½” value was found to be 0.695 h.

On to B4, for which the Kd amounted to 0.181 nM, the koff came to 0.000171 s⁻¹, the kon worked out at 943000 M⁻¹ s⁻¹ and the “t½” value was determined as 1.12 h.

B5: the Kd was found to be 0.0139 nM.

B6: the Kd turned out to be 0.0502 nM and the “t½” value is 0.755 h.

Take B7: binding was put at a Kd of 0.125 nM, the koff is 3.34e-05 s⁻¹, the kon was found to be 266000 M⁻¹ s⁻¹ and the “t½” value was determined as 5.76 h.

B8: the Kd turned out to be 0.54 nM and the “t½” value was determined as 1.38 h.

As for B9, binding was characterised by a dissociation constant (Kd) of 0.0367 nM, the koff is 0.000135 s⁻¹, the kon was 3.69e+06 M⁻¹ s⁻¹ and the “t½” value was 1.43 h.
